Results reported in IntAct's records for PubMed 19088199.

B1: Indoleamine 2,3-dioxygenase 1 (Mus musculus), P28776 (parent)
chain: MALSKISPTEGSRRILEDHHIDEDVGFALPHPLVELPDAYSPWVLVARNLPVLIENGQLREEVEKLPTLSTDGLRGHRLQRLAHLALGYITMAYVWNRGDDDVRKVLPRNIAVPYCELSEKLGLPPILSYADCVLANWKKKDPNGPMTYENMDILFSFPGGDCDKGFFLVSLLVEIAASPAIKAIPTVSSAVERQDLKALEKALHDIATSLEKAKEIFKRMRDFVDPDTFFHVLRIYLSGWKCSSKLPEGLLYEGVWDTPKMFSGGSAGQSSIFQSLDVLLGIKHEAGKESPAEFLQEMREYMPPAHRNFLFFLESAPPVREFVISRHNEDLTKAYNECVNGLVSVRKFHLAIVDTYIMKPSKKKPTDGDKSEEPSNVESRGTGGTNPMTFLRSVKDTTEKALLSWP

Variants of: B1
Conditions: with socs3_mouse Socs3, O35718
Sequence of socs3_mouse Socs3, O35718 (O35718 whole entry): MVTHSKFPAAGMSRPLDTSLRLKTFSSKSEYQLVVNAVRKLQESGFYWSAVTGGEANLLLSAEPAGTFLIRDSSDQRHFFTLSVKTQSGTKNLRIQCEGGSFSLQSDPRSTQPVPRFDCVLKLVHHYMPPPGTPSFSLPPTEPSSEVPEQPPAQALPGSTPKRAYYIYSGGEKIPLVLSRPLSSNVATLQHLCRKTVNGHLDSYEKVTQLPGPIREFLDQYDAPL

Row | effect of a mutation on the interaction | Variant
1 | disrupting interaction | Y115F;Y253F
